Laboratory results: publication PMC48140 (BMC Cell Biology, 2001)

Biological target: the molecule itself
Experiment: SDS-PAGE with immunoblot

B1: MP20, lens fiber cell membrane protein (natural protein, ovine, UniProt A0ACI6P5E9 1-173, looked up)
chain: MYSFMGGGLFCAWVGTILLVVATATDHWMQYRLSGAFAHQGLWRYCLGTKCYLQTESIAYWNATRAFMILSSLCATSGIIMGIVAFAQQPTFTRLSRPFSAGIMFFASTFFVLLALAIYTGVTVSFLGRRFGDWRFSWSYILGWVALLMTFFAGIFYMCAYRMHECRRLSTPR
- stoichiometry N: 2
